Patent publication US20240150465A1 (Chugai, published 2024)

Columns and labels:
[1] = molecular target: T1, human DLL3 (delta-like protein 3 isoform 1 precursor) expressed on Ba/F3 cells (human, UniProt Q9NYJ7 27-618); assay: cell ELISA, B-cell culture supernatants on immobilized hDLL3/BaF_H3 cells
T1 construct: Full-length cDNA stably transfected into mouse Ba/F3 cells; also called human DLL3 expressing Ba/F3
T1 sequence: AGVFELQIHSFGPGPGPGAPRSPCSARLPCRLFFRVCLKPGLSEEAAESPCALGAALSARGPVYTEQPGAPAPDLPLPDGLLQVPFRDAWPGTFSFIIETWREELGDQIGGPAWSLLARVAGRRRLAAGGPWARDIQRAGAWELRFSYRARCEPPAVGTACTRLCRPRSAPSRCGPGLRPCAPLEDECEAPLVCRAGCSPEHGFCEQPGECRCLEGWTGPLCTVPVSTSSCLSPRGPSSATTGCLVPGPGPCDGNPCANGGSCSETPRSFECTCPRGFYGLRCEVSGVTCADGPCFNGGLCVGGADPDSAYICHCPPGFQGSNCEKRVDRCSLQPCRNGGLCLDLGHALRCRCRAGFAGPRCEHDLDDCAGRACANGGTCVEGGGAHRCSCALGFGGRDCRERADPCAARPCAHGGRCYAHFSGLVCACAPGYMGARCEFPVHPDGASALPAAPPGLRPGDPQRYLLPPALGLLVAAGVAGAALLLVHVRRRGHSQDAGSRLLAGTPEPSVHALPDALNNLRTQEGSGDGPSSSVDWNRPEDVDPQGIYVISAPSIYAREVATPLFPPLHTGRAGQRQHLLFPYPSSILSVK
Protocol: ELISA screening was conducted to test specificity of antibodies in B-cell culture supernatants. Human DLL3 expressing Ba/F3 (hDLL3/BaF_H3 established in Example 2, 2.5×10⁴ cells) were immobilized onto a Nunc MaxiSorp 384-well plate (Sigma-Aldrich) which was pre-coated with BSA (Sigma-Aldrich) and SUNBRIGHT (registered trademark) OE-080CS as Biocompatible Anchor for cell Membrane (YUKA SANGYO). Immobilized cells were incubated with 20 microliters (micro L) of B-cell culture supernatants for 1 hour. The supernatants were aspirated and the cells were washed with HEPES buffer (0.02 M HEPES, 5 mM KCl, 4 mM NaHCO₃, 138 mM NaCl, 2 mM CaCl₂, 5 mM Glucose, 0.4 mM KH₂PO₄, 0.34 mM Na₂HPO₄° and 0.1% BSA). After washing, goat anti-rabbit IgG polyclonal antibody HRP conjugate (BETHYL, A120-111P) was added. The cells were further incubated on ice for 1 hour and washed. Then, ABTS Microwell Peroxidase Substrate (Kirkegaard & Perry Laboratories) was added and OD405 was analyzed with […]ax 384 (Molecular Devices).

del2 = molecular target: T2, del2; assay: ELISA with the human DLL3 ECD fragment proteins del0 to del6, OD405
T2 construct: also called truncated human DLL3 ECD variant with Flag-tag on C-terminus
T2 chain: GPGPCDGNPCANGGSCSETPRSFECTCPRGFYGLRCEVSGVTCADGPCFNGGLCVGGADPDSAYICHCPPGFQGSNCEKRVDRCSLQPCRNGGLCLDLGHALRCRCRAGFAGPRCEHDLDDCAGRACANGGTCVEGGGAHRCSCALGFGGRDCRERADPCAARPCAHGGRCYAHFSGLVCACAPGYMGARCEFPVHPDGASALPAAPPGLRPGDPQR
Protocol: (§1) Nunc MaxiSorp 384-well plates (Sigma-Aldrich) were coated with each of the human DLL3 ECD fragment proteins del0 to del6, and blocked with 20% Blocking One (NACALAI TESQUE). Blocking buffer was removed and recombinant anti-DLL3 antibodies were incubated with the immobilized proteins for 1 hour at room temperature and washed with HEPES buffer (0.05% Tween20, HEPES). Monoclonal ANTI-FLAG M2-Peroxidase, Clone M2 (Sigma-Aldrich) was then added and incubated for 1 hour at room temperature and washed. Then, ABTS Microwell Peroxidase Substrate (Kirkegaard & Perry Laboratories) was added and OD405 was analyzed with […]ax 384 (Molecular Devices).

del0 = molecular target: T3, del0; assay: as above
T3 construct: also called human DLL3 ECD with Flag-tag on C-terminus
T3 chain: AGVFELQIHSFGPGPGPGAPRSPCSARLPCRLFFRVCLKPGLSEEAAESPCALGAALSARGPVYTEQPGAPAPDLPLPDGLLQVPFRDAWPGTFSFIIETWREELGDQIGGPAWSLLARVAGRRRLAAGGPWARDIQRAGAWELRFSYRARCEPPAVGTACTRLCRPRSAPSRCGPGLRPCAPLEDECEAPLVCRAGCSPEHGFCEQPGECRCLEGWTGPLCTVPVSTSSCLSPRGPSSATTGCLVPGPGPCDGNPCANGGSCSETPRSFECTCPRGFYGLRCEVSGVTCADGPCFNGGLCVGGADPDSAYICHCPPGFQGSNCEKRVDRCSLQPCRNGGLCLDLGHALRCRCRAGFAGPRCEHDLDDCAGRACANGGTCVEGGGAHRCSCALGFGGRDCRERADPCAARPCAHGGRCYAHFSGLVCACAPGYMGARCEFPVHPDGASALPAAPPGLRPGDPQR
Protocol: as §1

del5 = molecular target: T4, del5; assay: as above
T4 construct: also called truncated human DLL3 ECD variant with Flag-tag on C-terminus
T4 chain: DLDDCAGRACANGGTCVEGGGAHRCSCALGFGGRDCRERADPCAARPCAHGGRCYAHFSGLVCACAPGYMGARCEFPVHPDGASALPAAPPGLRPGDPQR
Protocol: as §1

del3 = molecular target: T5, del3; assay: as above
T5 construct: also called truncated human DLL3 ECD variant with Flag-tag on C-terminus
T5 chain: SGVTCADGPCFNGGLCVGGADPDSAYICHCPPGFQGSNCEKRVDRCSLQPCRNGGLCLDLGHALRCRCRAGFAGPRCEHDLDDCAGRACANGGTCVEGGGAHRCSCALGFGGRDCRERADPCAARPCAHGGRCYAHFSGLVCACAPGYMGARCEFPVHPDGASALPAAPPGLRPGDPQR
Protocol: as §1

del6 = molecular target: T6, del6; assay: as above
T6 construct: also called truncated human DLL3 ECD variant with Flag-tag on C-terminus
T6 chain: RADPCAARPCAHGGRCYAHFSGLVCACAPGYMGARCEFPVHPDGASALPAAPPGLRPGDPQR
Protocol: as §1

del4 = molecular target: T7, del4; assay: as above
T7 construct: also called truncated human DLL3 ECD variant with Flag-tag on C-terminus
T7 chain: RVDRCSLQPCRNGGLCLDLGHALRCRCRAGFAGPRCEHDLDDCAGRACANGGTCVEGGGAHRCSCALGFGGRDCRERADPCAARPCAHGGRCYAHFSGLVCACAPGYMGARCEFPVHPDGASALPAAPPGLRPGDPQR
Protocol: as §1

B1: DLA0379 (antibody, human IgG1, V domains shown)
VH: QSLEESGGRLVTPGTPLTLTCTASGFSLNTYHMIWVRQAPGKGLEWIGIVDSGGSTYYASWAKGRFTISRTSTTVDLKATSLTTEDTATYFCARGGSWDGFNIWGPGTLVTVSS
VL: DVVMTQTPSSVSAAVGGTVTINCQSSQSVYNSDFLAWYQQKPGQPPKLLIYAASTLASGVPSRFKGSGSGTQFTLTISDLECDDAATYYCQGTYEDVGWFNDFGGGTEVVVK
notes: Rabbit B-cell clone, screened as B-cell culture supernatant
B1: binds [1]; no binding (del2); binds (del0). B1: no binding (del5); no binding (del3); no binding (del6). B1: no binding (del4).
